{
  "source": "paper PMC8152684",
  "substrate": "NC(=O)C[C@H](N)C(=O)O",
  "assay": "purified protein",
  "conditions": "free enzyme in solution, 50 mM Tris-HCl pH 8.6, 37 °C",
  "data": [
    {"protein": "L-asparaginase (Asp) (Escherichia coli K-12) (protein) LPNITILATGGTIAGGGDSATKSNYTVGKVGVENLVNAVPQLKDIANVKGEQVVNIGSQDMNDNVWLTLAKKINTDCDKTDGFVITHGTDTMEETAYFLDLTVKCDKPVVMVGAMRPSTSMSADGPFNLYNAVVTAADKASANRGVLVVMNDTVLDGRDVTKTNTTDVATFKSVNYGPLGYIHNGKIDYQRTPARKHTSDTPFDVSKLNELPKVGIVYNYANASDLPAKALVDAGYDGIVSAGVGNGNLYKSVFDTLATAAKTGTAVVRSSRVPTGATTQDAEVDDAKYGFVASGTLNPQKARVLLQLALTQTKDPQQIQQIFNQY", "values": [
      {"measurement": "Km", "value": 140, "unit": "µM"}
    ]}
  ]
}
